# Measured values: the supplement of paper PMC9170038
# System: K4 kissing-loop RNA reporter
# Assay: apparent KD of K4 kissing-loop reporter; higher = weaker reporter binding
# Conditions: Eterna round: R107
# Description: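 RNA-MaP round R107: designed RNA switches with theophylline, tryptophan, arginine or FMN aptamers are transcribed on-chip within common flanks. They are titrated with a labelled K4 kissing-loop RNA reporter in RNA-MaP buffer (100 mM Tris pH 7.5, 80 mM KCl, 4 mM MgCl2), without ligand or with the indicated ligand. Median apparent KD per design.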
# [1] = input ligand: theophylline 20 uM
# [2] = input ligand: tryptophan 2.4 mM
# 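Note: bound reporter read as fluorescence of individual clusters on recovered sequencing chips by microscopy, with normalized cluster intensities fitted with a binding model.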
Sequence,apparent KD of K4 kissing-loop reporter (input ligand: FMN 200 uM),apparent KD of K4 kissing-loop reporter (input ligand: arginine 13.2 mM),apparent KD of K4 kissing-loop reporter (input ligand: none),apparent KD of K4 kissing-loop reporter [1],apparent KD of K4 kissing-loop reporter [2]
GUUACGCAUGGAAGGAGCGCAGGCUCAACAAAUAGCUCAGUGAUGUUGAGCAAAUUAAAACUGCAGGUAGGUCGCCAUGUGUAAC [Ex Arginine B K4 22],399 nM,399 nM,508 nM,371 nM,422 nM
UGAUCUCGGCAGUGAUGUUGCAUAUGAGAAGGAGCGCACGAAAGUGCAGGUAGGUCGCUCAGCCACGACGAAAGUCGCGAGAUCU [#SwitchBubble 3 #K4Early],137 nM,259 nM,155 nM,238 nM,129 nM
CAUACGCAUGGAGGAUAUGAGAUUACUCGUAUCAUUUAAUAUUCUCAGUGAUGUUGAGAUUUGGGCUCAGAAGGCCAUGUGUAUG [Ex FMN B 16],393 nM,261 nM,290 nM,324 nM,288 nM
UUUAAAUAUAGUGAUGUUAUAUAACAAUGACGAGGACCGGUACGGCCGCCACUCGAGAGAGAUAAUGGUCGUUCGAAUCGAACGC [AstrosSSTryA#6],599 nM,779 nM,672 nM,574 nM,410 nM
UGACACUCAACGGCCGCCACUACCGUCGCCGAAUUCCGCAGUGAUGUUGCGAUCCUCCGAUUGUCUAGGACCGGGUUGUUUGGGC [theeternabot_exclusion_KL_Trp_B_43],181 nM,209 nM,223 nM,216 nM,162 nM
UGACUGGACUGAAGGAGCGCUAAACUCCUAGUGAUGUUAGGGAAACAAGACAAAGUCUUGAGGCAGGUAGGUCGCAGUCUAGUCU [FiskerMod 3 - Jieux - Same State - Arginine B],287 nM,199 nM,264 nM,272 nM,225 nM
AGGUCUGCACGAAGGAGCGCCCUGACAGGUUGCUGCCGUGGGCAGUGAUGUUGCUCAGUCCGGCAGGUAGGUCGCGUGCAGACCU,136 nM,109 nM,123 nM,97.5 nM,161 nM
AAUAAGGAGUGAUGUUCCAAGUGAUGUUAACGAGGACCGGUACGGCCGCCACUCGAUACGGCCGGAAAGUAAGAUAAACUACAAU [Same State - Tryptophan A (Freestyle 3)],70.5 nM,51.3 nM,60.8 nM,55.9 nM,54.6 nM
AGUAUGUAAUAUGGCAUAUUUAGAACUGAAGGAGCGCCGAAUAAGGCAGGUAGGUCGCGGAAUCAUGAGUGAUGUUCAUGACUAU [KL-SSArg-A26],80.6 nM,116 nM,123 nM,126 nM,91.1 nM
AGACGUUUGGGAAGGAGCGGAAUGUAAUACGGAACGCGUGGAGGUGCAGUGAUGUUGCAGAUCCAGGUAGGUCGCCCAAGGGACG [Esenraerve],94.1 nM,122 nM,99.1 nM,137 nM,91.1 nM
AAUAUAGUGAUGUUAUAUAAGAAGGAGUUACGAGGACCGGUACGGCCGCCACUCGAAACGAGUGAAGAAGGAGGAAGGAGGAGGA [SSTRyptA.A],479 nM,300 nM,453 nM,409 nM,366 nM
UGUGAUGUGUAGUGUUAUGUUUUGCGGGAUACCAGAGUCUUUUUAUUCCCUUGGCAGCUUGAGUGAUGUUUGAUGCUGUUGUUGU [pwwamullin],485 nM,349 nM,461 nM,463 nM,339 nM
AAUAAAAUCACGGCCGCCACUGAUUAUUUUAUUAGGAGUGAUGUUCCUAUGACAAUAUACCUUAACAGGACCGGGUGAAUAUUUA [JR_ExcTryptoB_Sub010],87.8 nM,89.6 nM,86.1 nM,94.4 nM,80.8 nM
UGCCCGCGCGAAGGAUAUGAGAGCUUGUCUGUCCAGUGAUGUUGGAGGUUGGUGAUUUGCUAGGCGUCAGAAGGUCGAGCUUAUA [theeternabot_sameState_KL_FMN_B_14],192 nM,94.4 nM,153 nM,150 nM,133 nM
AAGGGCGGGACUUUCUCGCCGGAUAGAGAUACCAGCCCAGCAAUGGGCCCUUGGCAGCUCACUGACCUCAGUGAUGUUGAGGUUC [Quintege],310 nM,214 nM,213 nM,208 nM,185 nM
ACGUCCGGGUUAAUCGUGGGCGUGGUGGAUACCAGUUCUUUAAUGAACCCUUGGCAGCCACAUGAGUGAUGUUCAUGUGCGAUGA [KL-XTheo-A10 #analogue],100 nM,102 nM,96.2 nM,98.2 nM,95.4 nM
AAACGUUGUUGCGAUACCAGCUGAUCGGAAACGAUCAUGCUGGAGUGAUGUUCCAGGAAAAGCCCUUGGCAGCGCAACGACGAAA [MAT - Same State Theophlline B - Mod of Eli - D30],276 nM,134 nM,228 nM,296 nM,179 nM
UGACAUUGCUCAGAUACCAGACAUGAGCAUCAGCCAUGUGCCAACGUACAAAUAAUAAAUGUCCCUUGGCAGCUGAGCAAUGUCU [TheoBX 15],67.4 nM,25.8 nM,48.2 nM,64.6 nM,59.9 nM
GCCGUACGCAUGGAUACCAGUUGCGAAGUGAUGUUUCGGGCGAUCAAAGGAUCGCCAGACAACCCUUGGCAGCCAUGCGUACGGC,757 nM,506 nM,1600 nM,769 nM,674 nM
GCCGCAAGGAUAGCAGCAAUAGGCGCUCGCUAGGAUAUCUGGAAACAGAGAAGGAGCUGGAGUGAUGUUUUACCUCCUAAAAUUA,517 nM,1900 nM,682 nM,210 nM,1070 nM
UGUCAUUGGUCUGAUACCAGUACCCUUGGCAGCCAAGGAGUGAUGUUCCGAGGAUACCAGUGCCCUUGGCAGCAGACCGAUGACU [TheoBS 27 #DoubleAptamer #SwitchBubble],375 nM,308 nM,354 nM,176 nM,350 nM
GAUGUAGAGGCGGCCGCCACUAGUGAUGUUAGUGAUGUUUGAUACUGUAUAUAUCGGCGUGUAGAUAGGACCGGGCCUGAUGGAG [dbbdmullin],276 nM,165 nM,214 nM,225 nM,201 nM

Sequence,apparent KD of K4 kissing-loop reporter (input ligand: FMN 200 uM),apparent KD of K4 kissing-loop reporter (input ligand: arginine 13.2 mM),apparent KD of K4 kissing-loop reporter (input ligand: none),apparent KD of K4 kissing-loop reporter [1],apparent KD of K4 kissing-loop reporter [2]
UACAUUUUAUUAACACUAAAUACAACUGAAGGAGCGACAAUAAAGUCAGGUAGGUCGCAGAAUAAAUGAGUGAUGUUCAUUAUUG [JR_ExcArginiA_Sub016],60.2 nM,101 nM,63.8 nM,92.8 nM,51.2 nM
UCCUGCAAUCGACCACGAAAGUGGUUCGAUACCAGAGUCGAAAGACUCCCUUGGCAGCGAGUGAUGUUCGAGCAGGUAAAAUAAA,438 nM,436 nM,567 nM,467 nM,472 nM
UAAGAGGACCACUACAAGAGUCCUCGAAUACGAGGACCGGUACGGCCGCCACUCGAUAACUUGUAGUGAUGUUGCAAGUAAGAAU [BrourdMod 2 - Jieux - Same State Tryptophan A],80.4 nM,85.6 nM,85.3 nM,97.4 nM,46 nM
CGUUUAUAGCAGGAUACCAGUACCCAUUAAGUACGUUAAUAGUAGAGUGAUGUUCUAAAGUACCCUUGGCAGCUUCCCGUGACCC [ExTheophylB.X],103 nM,164 nM,124 nM,176 nM,94.1 nM
UGCACCAGUGAUGUUGGUCGGCACCGAGAUACCAGCUGAUCUCUUAGCCCUUGGCAGCUCUUUAUUCGCGUUAUCAGUUUCUUCG [theeternabot_sameState_KL_Theo_A_16],428 nM,368 nM,464 nM,416 nM,345 nM
ACGCGCGCGAGUGAUGUUCGGAGCGGCUGGCAGGAUAUGCCGCAAGGCAGAAGGGUCGUGGCGCGUCCAGGGUAACCUGGACGCG [#2 Exclusion - FMN A Attempt #28 (HarryS)],190 nM,401 nM,466 nM,391 nM,455 nM
UGGAGUUGACGAAAAGUCAACUCCUGAGAUACCAGUGACGAAAGUCACCCUUGGCAGCUCACUGGCAGUGAUGUUGCUAAAUAAA [KL-SSTheo-A2],57.3 nM,51.4 nM,122 nM,63.5 nM,32.6 nM
CUAUUUCGCGUGGAUACCAGCGGUCGUAAAAUGUCAGUGAUGUUGAAGAGGAAAAGAGCUCGCCCUUGGCAGCCAUUCCGCACUA [theeternabot_sameState_KL_Theo_B_34],591 nM,363 nM,568 nM,446 nM,399 nM
GUGCAGUGAUGUUGCACGAGGAAAGACGAUACCAGCCGUAAAUAAGGCCCUUGGCAGCGUAAGCUAGCAUAAAGUAUGCUAGUCC [Onarve],108 nM,102 nM,103 nM,77.1 nM,85.2 nM
UGUCAUGGAAACAUGACCGUUAAAAUAAAUCGAGGACCGGUACGGCCGCCACUCGUAUAGCGGUCAGUGAUGUUGACUGUAGUAC [KL-SSTryp-A form2 sub12 #dotplot2>1],419 nM,428 nM,491 nM,475 nM,546 nM
UUUAUAUAGUCGGCCGCCACUGAUUUUUUUAUAUGUUUAUGUUUAUACGAGUGAUGUUCGAUAUACAGGACCGGGACUUUGGUUA [JR_SSTryptoB_Sub019],145 nM,207 nM,159 nM,224 nM,115 nM
GGAGCAGUGAUGUUGCUUGUAAUGCAUUCAGAGGAUAUUCGUUUGGGAAGAAGGCUGAAUCGUUCUUCGAGUGAUGUUCGAGGAU [Same State FMN A GF 16],154 nM,154 nM,156 nM,148 nM,138 nM
AAUGCAUAGUGAAGGAGCGCGAUAAGCAGUGAUGUUGCUUAGCUAUUAUUCAUUUUUUUAACGCAGGUAGGUCGCACUUUGCAUA [JR_ExcArginiB_Sub016],166 nM,142 nM,135 nM,148 nM,144 nM
UGACUGGACUGAAGGAGCGGGCGAGACAAAGUCUCGAACUGCUAGUGAUGUUAGCAAAUAACCCAGGUAGGUCGCAGUCUAGUCU,122 nM,100 nM,120 nM,109 nM,110 nM
GAUUAAUAAGAGGAUACCAGUACUAAUAAAGUACAUUAAUAGUAGAGUGAUGUUCUAUAGUACCCUUGGCAGCUUAGAGUAAGUU [#09 K4 Theophylline B Exclusion],131 nM,200 nM,167 nM,210 nM,103 nM
UCCUAGGCUCGAAAGAGCCUAGGAUUUACUCAGGAUAUCCGGAAACGGAGAAGGGAGUGACUAGUGAUGUUAGGGACUCCCUAAA,144 nM,80.8 nM,95.5 nM,108 nM,90.6 nM
UCCUAGGCUCGAAAGAGCCUAGGAUGGACUCAGGAUAUCCGGAAACGGAGAAGGGAGUCACUAGUGAUGUUAGGGACUCCCUAAC,302 nM,97.7 nM,110 nM,123 nM,109 nM
GGAUAGGACAGAGGAUAUGGGCUAGGCAAGAAUAACUUGUCUAGCAAAUCCAUGAGGAGUGAUGUUCCAGAAGGCUGUCCUAUCG [FmnBX 1 - #SwitchBubble #StraticStem #DoubleMagnetSystem],375 nM,167 nM,114 nM,177 nM,143 nM
AAGUGAUGUUGUAGUGAUGUUGUGAUGUUGCAGGAUAUAUAGUGAUGUAGAAGGGUAAGUACUGUUUUUUUUUUUGAGUGAUGUU [ookooyzrmullin],101 nM,41.7 nM,78.4 nM,67.5 nM,88.7 nM
CGCAGUGAUGUUGCGAGUAGCUACAGGGAAGGAGCGUGCUAGAGCACAGGUAGGUCGCCCACUGGGUCAGUGAUGUUGGUCGGGU [Same State Arginine A GF 29],201 nM,166 nM,180 nM,171 nM,171 nM
UGAUACCAGACGGCCGCCACUCCCGUAAGUCAAAGACUUACGAAGAGGGUUUUUCAGUGAUGUUGGAGGACCGGGUCUGGUAUCU [FiskerMod 17 - Jieux - Exclusion - Tryptophan B],516 nM,420 nM,545 nM,506 nM,824 nM
